Source: patent publication US8404239B2, “Anti-Notch2 NRR antibodies” (Genentech, Inc., priority 2008, dated 2013)
Values joined by “and” are separate entries in the source; they are usually repeats but may differ in a detail not shown here. Equal entries are not always repeated.

How the values were obtained:
[1] = target: T1, myc-Notch2 on K1-CHO cells (Homo sapiens, UniProt Q04721); assay: FACS binding to K1-CHO cells expressing N-myc-Notch2; format: cell-based; conditions: doxycycline induced
T1 construct: either the Notch1 or Notch2 extracellular domain and trans-membrane domains were N-terminally myc-tagged; expressed in transfected cells; host or cells: CHO-K1 (Tet-inducible, doxycycline)
Source text: The N-myc-Notch transgenes were expressed under control of the inducible tet promoter; bottom row, control expression in the absence of induction with doxycycline (−Dox); top row, induced expression following addition of doxycycline (+Dox); note that the K1-CHO line endogenously expresses Notch2, which is detected by anti-NRR2 in the presence and absence of doxycycline (for example, compare panels 7 and 10).
Expression plasmids were made in which either the Notch1 or Notch2 extracellular domain and trans-membrane domains were N-terminally myc-tagged and expressed under the control of a Tetracycline Response Element (TRE) upstream of a minimal CMV immediate early promoter. These plasmids were stably transfected into CHO-K1 cells (Clonetech), engineered to express a transactivator protein in the presence of Doxycycline that binds to and activates the TRE in the transfected plasmid. Cells were treated with […] doxycycline or vehicle for 48 hrs, and then stained with anti-NRR, anti-myc (9E10, Millipore) or E25 control antibodies and either goat anti-human Alexa 488 or Alexa 647 secondary antibodies (Invitrogen). After staining, cells were run on a FACScalibur machine (BD Biosciences) and 15000 events were collected and range gates were drawn to assess positively and negatively stained populations.

[2] = test system: other three non-targeted receptors; assay: Binding to non-targeted Notch receptors (SPR, ELISA, FACS); parameters: species or system human, mouse; conditions: ELISA and FACS
Method: Binding affinities of anti-Notch2 NRR antibodies were measured by Surface Plasmon Resonance (SRP) using a BIAcore™-3000 instrument. Anti-Notch2 NRR human IgGs were captured by mouse anti-human IgG coated on the CM5 sensor chip to achieve approximately 200 response units (RU). For kinetics measurements, two-fold serial dilutions of human and mouse Notch2 NRR (3.9 nM to 500 nM) were injected in PBT buffer (PBS with 0.05% Tween 20) at 25° C. with a flow rate of 30 μl/min. Association rates (kon) and dissociation rates (koff) were calculated using a simple one-to-one Langmuir binding model (BIAcore Evaluation Software version 3.2). The equilibrium dissociation constant (KD) was calculated as the ratio koff/kon.
Anti-Flag antibody was used to capture Flag-Tagged NRR protein from all four Notch receptors in a black walled, high binding plate (Greiner). NRR antibody and E25 control antibodies were bound to the NRR proteins and washed away with PBS. An Alkaline Phosphate conjugated anti-human (H+L) secondary antibody (Jackson ImmunoResearch) was used to detect bound anti-NRR and E25. Unbound secondary was washed away and AP was detected with PNPP substrate (Pierce). […]

[3] = test system: splenic marginal zone B (MZB) cells; assay: Marginal zone B cell analysis in Balb/c mice; format: in vivo, mouse; conditions: 5 mg/kg, spleen, CD21/CD23 FACS, three animals
Method: (§1) Balb/c mice were injected four times every four days with 5 mg/kg of α-gD isotype control, α-NRR1 or α-NRR2, and cells were harvested from the thymus or spleen on day 13, one day after the fourth dose. (A) Thymus weight measurements. Thymus weights (in mg) are expressed relative to total body weight (in g). Values represent the mean plus standard deviation for three mice per group. (B) Thymus cell count. (C) CD4 and CD8 FACS to identify CD4^+/CD8^+ double-positive T cells. Numbers represent the percentage of thymic cells in the double-negative, single-positive and double-positive populations. […] (D) CD21 and CD23 FACS to identify marginal zone B cells. Numbers represent the mean percentages ±standard deviation (from three animals) of cells within the MZB gate, which is boxed; p values are also noted; representative dot plots from one of the three animals in each group are graphed.
(§2) Splenocytes were isolated from the mice and were stained for FACS with B220-PerCP, CD23-PE and CD21-FITC (BD Biosciences) as previously described (Saito, et al., Immunity, Vol. 18, 675-685, May 2003).

[4] = test system: thymus, CD4+/CD8+ double-positive T cells; assay: In vivo thymus / T cell development in Balb/c mice; parameters: species or system mouse; conditions: 5 mg/kg four times every four days
Method: as §1, §2

[5] = test system: Notch1-NRR / Notch2 NRR chimeric proteins; assay: Epitope mapping: plate binding to Notch1-NRR/Notch2 NRR chimeric proteins fused to alkaline phosphatase; conditions: domain swap
Method: The indicated NRR protein fragments (dark blue, Notch1 sequences; light blue, Notch2 sequences) were expressed as secreted proteins fused to alkaline phosphatase to enable rapid measurements of antibody binding in a plate-based assay. […] Antibody binding was assessed by measuring alkaline phosphatase activity that remained bound to the plate. […] (B) Structure of human Notch NRR1. NRR1 is shown as a C-alpha cartoon. The three calcium ions in the LNR motifs are shown as spheres. The position of the S2 cleavage site is marked with an arrow. (C) Superposition of NRR1 on NRR2 (chain A from pdb code 2OO4) based on structurally conserved atoms. NRR1 (shaded) and NRR2 (white) are shown as C-alpha traces. (D) Open-book view of the interface between NRR1 (left) and α-NRR1 Fab (right, border between heavy and light chains shown as a black dashed line). The extent to which the solvent accessible surface area is buried by complex formation is indicated.
Synthetic Notch1 and Notch2 NRR sequences were designed with unique restriction sites at junctions between the five domains of the NRR-LNR-A; LNR-B; LNR-C; HD-N; and HD-C—and produced by Blue Heron Technology (Bothell, Wash.). Swapping various domains between the two synthetic sequences, using the engineered restriction sites, generated chimeric NRR proteins. The chimeric clones were assembled in a modified pUC19 vector and transferred to a SEAP containing vector, pCSC.AP, for expression. AP-tagged NRR proteins were produced by transfection of 293T cells. After 72 hr culture, the conditioned media was collected, cleared by centrifugation, and tested for AP activity using the Phospha-Light System (Applied Biosystems, Bedford, Mass.). The AP activity in each sample was normalized and an ELISA was performed to test the ability of α-NRR1 or α-NRR2 to bind the chimeric NRR proteins. The ELISA was performed as follows: either α-NRR1 or α-NRR2 was captured by a plate bound α-Fc antibody in 96-well format and incubated with the conditioned media overnight. The plate was washed to remove unbound protein, and the captured protein was tested for AP activity using the Phospha-Light System.

T1 sequence (Q04721 26-1677 limits assumed): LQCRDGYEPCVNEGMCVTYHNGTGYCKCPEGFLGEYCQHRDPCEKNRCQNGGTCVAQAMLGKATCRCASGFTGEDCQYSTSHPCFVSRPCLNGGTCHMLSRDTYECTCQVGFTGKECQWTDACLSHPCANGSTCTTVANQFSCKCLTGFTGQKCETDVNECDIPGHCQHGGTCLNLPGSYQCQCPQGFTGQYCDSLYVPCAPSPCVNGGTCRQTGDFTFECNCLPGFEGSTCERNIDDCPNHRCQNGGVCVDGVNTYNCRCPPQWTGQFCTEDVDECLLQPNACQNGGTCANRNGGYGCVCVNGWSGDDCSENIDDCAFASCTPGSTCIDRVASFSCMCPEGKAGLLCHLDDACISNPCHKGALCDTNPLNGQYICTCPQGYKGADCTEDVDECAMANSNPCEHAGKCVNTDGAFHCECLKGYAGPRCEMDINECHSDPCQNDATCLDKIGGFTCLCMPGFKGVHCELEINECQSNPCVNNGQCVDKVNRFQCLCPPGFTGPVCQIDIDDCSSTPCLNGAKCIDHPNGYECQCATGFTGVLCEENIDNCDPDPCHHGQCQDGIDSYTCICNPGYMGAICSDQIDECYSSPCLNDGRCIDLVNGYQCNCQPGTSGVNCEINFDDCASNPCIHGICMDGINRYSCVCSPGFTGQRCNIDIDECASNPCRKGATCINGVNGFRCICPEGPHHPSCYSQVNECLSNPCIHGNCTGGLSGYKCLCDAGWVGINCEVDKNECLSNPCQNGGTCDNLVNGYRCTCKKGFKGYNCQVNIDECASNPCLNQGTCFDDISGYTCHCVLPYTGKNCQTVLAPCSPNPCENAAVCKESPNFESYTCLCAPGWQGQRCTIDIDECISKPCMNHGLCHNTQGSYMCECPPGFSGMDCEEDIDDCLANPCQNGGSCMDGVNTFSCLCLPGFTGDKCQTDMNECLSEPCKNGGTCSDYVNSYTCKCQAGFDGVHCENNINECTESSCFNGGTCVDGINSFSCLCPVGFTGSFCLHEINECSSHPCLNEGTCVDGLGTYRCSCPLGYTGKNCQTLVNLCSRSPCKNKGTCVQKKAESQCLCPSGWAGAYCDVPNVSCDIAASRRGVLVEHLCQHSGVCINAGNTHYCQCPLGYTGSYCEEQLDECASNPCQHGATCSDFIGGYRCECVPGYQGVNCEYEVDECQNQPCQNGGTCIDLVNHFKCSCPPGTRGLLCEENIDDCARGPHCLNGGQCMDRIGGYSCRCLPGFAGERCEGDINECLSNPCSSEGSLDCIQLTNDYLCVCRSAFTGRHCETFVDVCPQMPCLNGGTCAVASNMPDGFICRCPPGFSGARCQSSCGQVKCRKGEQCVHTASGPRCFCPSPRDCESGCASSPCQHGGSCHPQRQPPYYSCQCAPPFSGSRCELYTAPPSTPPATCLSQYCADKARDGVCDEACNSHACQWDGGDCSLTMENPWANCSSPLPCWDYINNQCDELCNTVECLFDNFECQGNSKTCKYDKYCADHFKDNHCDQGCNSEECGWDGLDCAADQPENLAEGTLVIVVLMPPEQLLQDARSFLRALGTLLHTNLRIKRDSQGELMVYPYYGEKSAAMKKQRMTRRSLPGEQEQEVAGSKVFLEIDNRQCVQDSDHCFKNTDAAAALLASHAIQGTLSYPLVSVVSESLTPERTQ

B1: anti-NRR2: affinity matured form of Antibody D, phage library-derived human anti-Notch2 NRR monoclonal antibody (antibody, V domains shown)
VH: EVQLVESGGGLVQPGGSLRLSCAASGYTFSSYGMSWVRQAPGKGLEWVSYIYPYSGATYYADSVKGRFTISADTSKNTAYLQMNSLRAEDTAVYYCARHSGYYRISSAMDVWGQGTLVTVSA
VL: DIQMTQSPSSLSASVGDRVTITCRASQNIKRFLAWYQQKPGKAPKLLIYGASTRESGVPSRFSGSGSGTDFTLTISSLQPEDFATYYCQQYYRSPHTFGQGTKVEIKR
- binding to myc-Notch2 cells [1]: significantly bound
- binding to human or mouse sequences of the other three non-targeted receptors [2]: no binding
- percentage of cells within the MZB gate (mean ± standard deviation) [3]: 0.97% and 0.97+/−0.45%
- total number of cells in the thymus ([4]; day 13): not
- percentage of thymic cells in the CD4+/CD8+ population ([4]; day 13, FACS): 80%
- binding to chimera containing only the LNR-A and HD-C subdomains from NRR2 [5]: weak but detectable binding
- binding to chimera with LNR-A of NRR1 in the NRR2 backbone [5]: completely disrupted
- binding to chimeras C.Hn and BC (only three subdomains from NRR2) [5]: full binding
- binding to chimeras with swaps of LNR-B or LNR-C in the NRR2 backbone [5]: no effect
